Source: IntAct's records for PubMed 29549094

B1: Syntaxin-17 (Homo sapiens), P56962 (parent)
chain: MSEDEEKVKLRRLEPAIQKFIKIVIPTDLERLRKHQINIEKYQRCRIWDKLHEEHINAGRTVQQLRSNIREIEKLCLKVRKDDLVLLKRMIDPVKEEASAATAEFLQLHLESVEELKKQFNDEETLLQPPLTRSMTVGGAFHTTEAEASSQSLTQIYALPEIPQDQNAAESWETLEADLIELSQLVTDFSLLVNSQQEKIDSIADHVNSAAVNVEEGTKNLGKAAKYKLAALPVAGALIGGMVGGPIGLLAGFKVAGIAAALGGGVLGFTGGKLIQRKKQKMMEKLTSSCPDLPSQTDKKCS
B2: Syntaxin-17 (Homo sapiens), P56962 (parent)
chain: B1 chain
partner: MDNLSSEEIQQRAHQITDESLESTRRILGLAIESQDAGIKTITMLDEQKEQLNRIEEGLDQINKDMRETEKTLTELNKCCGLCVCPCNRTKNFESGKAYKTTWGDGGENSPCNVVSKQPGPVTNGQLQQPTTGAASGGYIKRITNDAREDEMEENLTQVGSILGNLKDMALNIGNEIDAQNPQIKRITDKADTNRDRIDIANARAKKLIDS

Variants of: B1
Conditions: with acsl3_human ACSL3, O95573
acsl3_human ACSL3, O95573, sequence (O95573 whole entry): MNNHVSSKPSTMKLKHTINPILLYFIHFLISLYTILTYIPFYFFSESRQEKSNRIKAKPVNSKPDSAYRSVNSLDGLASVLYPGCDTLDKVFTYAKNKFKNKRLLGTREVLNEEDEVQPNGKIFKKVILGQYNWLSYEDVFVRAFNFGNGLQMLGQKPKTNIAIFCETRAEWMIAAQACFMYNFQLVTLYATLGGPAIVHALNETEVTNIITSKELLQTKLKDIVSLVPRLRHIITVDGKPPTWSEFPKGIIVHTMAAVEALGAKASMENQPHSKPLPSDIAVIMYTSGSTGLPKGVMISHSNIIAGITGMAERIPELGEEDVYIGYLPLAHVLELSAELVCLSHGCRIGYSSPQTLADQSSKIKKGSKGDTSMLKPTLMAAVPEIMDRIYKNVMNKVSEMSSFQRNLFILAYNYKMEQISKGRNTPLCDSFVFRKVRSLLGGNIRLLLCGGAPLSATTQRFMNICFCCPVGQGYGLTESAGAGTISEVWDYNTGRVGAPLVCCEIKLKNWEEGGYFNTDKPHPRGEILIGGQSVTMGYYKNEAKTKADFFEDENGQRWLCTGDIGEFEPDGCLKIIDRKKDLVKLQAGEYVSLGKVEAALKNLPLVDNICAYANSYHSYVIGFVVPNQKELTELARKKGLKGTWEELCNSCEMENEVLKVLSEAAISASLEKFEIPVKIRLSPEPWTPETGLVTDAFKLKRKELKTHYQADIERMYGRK

effect of a mutation on the interaction	Variant
with no effect	MSEDEEKVKLRRLEPAIQKFIKIVIPTDLERLRKHQINIEKYQRCRIWDKLHEEHINAGRTVQQLRSNIREIEKLCLKVRKDDLVLLKRMIDPVKEEASAATAEFLQLHLESVEELKKQFNDEETLLQPPLTRSMTVGGAFHTTEAEASSQSLTQIYALPEIPQDQNAAESWETLEADLIELSQLVTDFSLLVNSQQEKIDSIADHVNSAAVNVEEGTKNLGKAAKYKLAALPVAGALIGGMVGGPIGLLAGFCVAGIAAALGGGVLGFTGGKLIQRKKQKMMEKLTSSCPDLPSQTDKKCS [K254C]

Variants of: B2
Conditions: with snp23_human SNAP23, O00161

effect of a mutation on the interaction	Variant
decreasing interaction strength	MSEDEEKVKLRRLEPAIQKFIKIVIPTDLERLRKHQINIEKYQRCRIWDKLHEEHINAGRTVQQLRSNIREIEKLCLKVRKDDLVLLKRMIDPVKEEASAATAEFLQLHLESVEELKKQFNDEETLLQPPLTRSMTVGGAFHTTEAEASSQSLTQIYALPEIPQDQNAAESWETLEADLIELSQLVTDFSLLVNSQQEKIDSIADHVNSAAVNVEEGTKNLGKAAKYKLAALPVAGALIGGMVGGPIGLLAGFCVAGIAAALGGGVLGFTGGKLIQRKKQKMMEKLTSSCPDLPSQTDKKCS [K254C]
